In series [1] the test system is cardiomyocytes (CM). The series can be described thus: CM division lineage tracing in α-MHC-MADM mice post-MI. The class given is in vivo, mouse. Here is the method: All animal procedures were performed under protocols approved by the Temple University Animal Care and Use Committee. Male and female C57BL6 mice were used. Different modRNAs (100 μg/heart) were injected directly into the myocardium in open chest surgery. Three to ten animals used for each experiment. For mice survival, C57BL6 mice (10-12-weeks-old) treated with Luc or PSAT1 modRNAs (n=10) post induction of MI and were followed for the indicated time. Deaths were monitored and documented over time. Tamoxifen-inducible CM-restricted MADM mice (α-MHC-MADM mice) mice were generated by crossing MADM mice (Jackson laboratory) to […].^Tg(Myh6-cre/Esr1*) 1Jmk/J (Cat no. 005657) mice to get α-MHC-MADM mice (Yuko, A. E., et al., 2021, Redox Biology, 47:102162). Tamoxifen (Sigma-Aldrich) was dissolved in sesame oil at 10 mg/ml as stock solution. To induce Cre activation, tamoxifen was administered to mice by intraperitoneal (IP) injection five times (48 h interval between administrations) at 40 mg/kg body weight for adult mice (Yuko, A. E., et al., 2021, Redox Biology, 47:102162). The tissues were harvested at mentioned time for analysis.
To analyze the cardiomyocyte division in vivo post-MI, cardiomyocyte specific mosaic analysis with double markers (MADM) mice, generated as described previously, were used (Yuko, A. E., et al., 2021, Redox Biology, 47:102162). The CM-specific transgenic mice were generated by crossing MADM mice (Jackson laboratory) to B6.FVB (129)-A1cf.^Tg(Myh6-cre/Esr1*) 1 Jmk/J (Cat no. 005657) mice to get α-MHC-MADM mice. In the MADM system, because of interchromosomal Cre-loxP recombination after S phase of the cell cycle, the daughter cells will get labeled (single colored) with either GFP (Green) or RFP (Red). The MADM single-labeling can only be attained by end of the cell cycle through cytokinesis. The inducible MADM system warrants temporal control of recombination and offers direct evidence for cell division. […]

Series [2] deals with cardiomyocytes (CM). Put plainly: DNA damage response immunostaining (8-OHG, pATM) in CMs post-MI. To be noted: two days post-MI; compared to Luc. The class given is in vivo, mouse. Here is the method:
Mice hearts were harvested, weighed, and fixed in 4% PFA/PBS overnight on shaker and then washed with PBS for 1 hour and incubated in 30% sucrose/PBS at 4° C. for 12-18 hours. Hearts were then fixed in OCT and frozen at −80° C. (Magadum A., et al., Circulation. 2020, 141 (15): 1249-1265). Transverse heart sections (6-8 μm) were made using a cryostat. Frozen sections were rehydrated in PBS for 5-10 min followed by permeabilization with PBS with 0.1% Triton™ X100 (PBST) for 7-8 min. Heart sections were then treated with 3% H2O2 for 5 min and washed (3×5 min) with PBST. The samples were then blocked with PBS+10% Donkey normal serum+0.1% Triton™ X100 (PBSST) for 1 hour at room temperature. Primary antibodies (see complete list of primary antibodies used for this Example in Table 2 below) diluted in PBST were added and incubated overnight at 4° C. […] For immunostaining with wheat germ agglutinin (WGA) for CM size quantification, images were captured at 40× magnification, and ImageJ was used to determine the area of each cell. Quantitative analyses involved counting of multiple fields from 5-8 mouse hearts per group, and 3-4 sections/heart (˜50 cells per field assessed, for a total ˜250 cells per sample). […] BrdU positive CMs were counted in multiple fields from three independent samples per group and 3 sections/heart. The total number of CMs counted was ˜1-1.5×10^3 CMs per section. […]

B1: PSAT1 modRNA: modified mRNA with N1-methylpseudouridine, transcribed in vitro, encoding phosphoserine aminotransferase 1 (ORF SEQ ID NO: 1, RNA SEQ ID NO: 2) (nucleic acid)
chain: AUGGAAGCCACCAAGCAAGUGGUUAACUUUGGGCCCGGGCCUGCCAAGCUGCCACACUCGGUAUUGUUGGAGAUCCAGAAGCAGCUACUAGACUACAGAGGACUCGGCAUCAGUGUGCUCGAAAUGAGUCACAGGUCAUCAGAUUUUGCCAAGAUUAUUGGCAAUACAGAGAAUCUUGUGAGGGAAUUGCUAGCUGUUCCCAACAACUACAAGGUGAUCUUUGUACAAGGAGGUGGGUCUGGCCAGUUCAGUGCUGUCCCCUUAAAUCUGAUUGGCCUGAAAGCUGGAAGGAGUGCUGACUACGUGGUGACCGGAGCUUGGUCAGCUAAGGCUGCGGAAGAAGCCAAGAAGUUUGGAACGGUGAACAUUGUCCACCCUAAACUUGGAAGUUACACAAAAAUUCCAGACCCAAGCACCUGGAACCUCAACCCGGACGCCUCCUAUGUAUACUUCUGUGCAAACGAGACUGUGCACGGGGUGGAGUUUGACUUCGUACCUGACGUCAAGGGAGCGGUGCUGGUCUGUGACAUGUCCUCAAACUUCUUAUCCAGGCCGGUGGAUGUUUCCAAGUUUGGUGUGAUUUUCGCUGGUGCUCAGAAGAAUGUUGGCUCUGCCGGGGUGACGGUGGUGAUUGUCCGGGAUGACCUGCUGGGGUUCUCGCUCAGAGAGUGCCCAUCAGUCCUUGACUACAAAGUGCAGGCUGGGAACAACUCUUUGUAUAACACACCUCCGUGCUUCAGCAUCUACGUCAUGGGCAUGGUCCUGGAAUGGAUCAAGAACAACGGCGGGGCCGCAGCCAUGGAGAAGCUCAGCUCCAUCAAAUCCCAAAUGAUUUAUGAGAUCAUUGAUAAUUCUCAAGGAUUUUAUGUAUGCCCAGUGGAGCGCCAGAAUAGAAGCAGGAUGAACAUCCCAUUUCGCAUUGGCAACGCCAAAGGAGACGAAGCUUUGGAAAAGCGGUUUCUUGACAAGGCGGUAGAACUCAACAUGAUCUCCUUGAAGGGGCACAGGUCAGUGGGAGGCAUUCGUGCCUCUCUGUAUAACGCUGUCACAACCGAAGACGUUGAGAAGCUGGCGGCCUUCAUGAAGAAUUUCUUGGAGAUGCAUCAGCUGUGA
modifications: N1-methylpseudouridine
On to B1, for which, in the series on cardiomyocytes (CM) [1] (1-month post-MI), the “location of the increase in single color CMs in the heart” value was “mainly in the infarct border zone”. Moreover, the “% single color (green or red positive) CMs compared to total labeled CMs” value with cardiomyocytes (CM) [1] (1-month post-MI, compared to Luc modRNA) was “increased”. Besides, the “nucleation of the majority of single color CMs” value with cardiomyocytes (CM) [1] (28 days post-MI) is “mononucleated”. In the series with cardiomyocytes (CM) [2], the “staining for nuclear 8-OHG (nuclear foci per CMs)” value is recorded as “significantly lower” and the “staining for pATM (nuclear foci per CMs)” value is reported as “significantly lower”.

The values above are taken from patent US20250215403A1, “Compositions and Methods for Cardiac Tissue Regeneration” (Temple University - Of The Commonwealth System Of Higher …, priority 2022, published 2025).
